Data taken from patent publication US20030032785, “High-affinity oligonucleotide ligands to vascular endothelial growth factor (VEGF)” (published 2003).

Target: VEGF165 (vascular endothelial growth factor, 165 aa form) (Homo sapiens, UniProt P15692-4 P15692-4:27-191)
Assay: filter
Settings: tags: gift of N. Ferrara, Genentech; chain copies: 2 stated
Experimental: Nitrocellulose Filter Binding Assays. Oligonucleotides bound to proteins can be effectively separated from the unbound species by filtration through nitrocellulose membrane filters (Yarus, M. and Berg, P. (1970) Anal. Biochem. 35:450-465; Lowary, P. T. and Uhlenbeck, O. C. (1987) Nucleic Acids Res. 15:10483-10493; Tuerk, C. and Gold, L. (1990) supra). Nitrocellulose filters (0.2 μm pore size, Schleicher and Schuell, Keene, N.H.) were secured on a filter manifold and washed with 4-10 ml of buffer; Following incubations of ³²P labeled RNA with serial dilutions of the protein for 10 min at 37° C. in buffer (PBS) containing 0.01% human serum albumin (HSA), the solutions were applied to the filters under gentle vacuum in […] aliquots and washed with 5 ml of PBS. The filters were then dried under an infrared lamp and counted in a scintillation counter.
To this end, certain ligands were synthesized and tested for binding affinity. The binding studies were performed using the protocols described in Example 1.

VEGF165 (vascular endothelial growth factor, 165 aa form), sequence (P15692 other isoform, or with tags, fused parts or gaps): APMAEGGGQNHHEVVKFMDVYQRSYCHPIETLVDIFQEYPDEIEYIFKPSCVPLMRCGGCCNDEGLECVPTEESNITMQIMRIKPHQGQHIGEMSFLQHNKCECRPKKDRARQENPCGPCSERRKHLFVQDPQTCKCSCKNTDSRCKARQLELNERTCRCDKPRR

ACCCUGAUGGUAGACGCCGGGGUG (ssRNA, 2'-NH2 at all C and U; G9,A12,A14 2:1 mixture 2'-OMe:2'-OH) [NX-203]
Kd: 0.2 nM
